# Assay results as given in the Human Domainome abundance scans (Beltran et al. 2025).
# ± gives the uncertainty stated by the source.
# B1: Double-stranded RNA-specific adenosine deaminase, residues 296 to 358; numbered along this chain, P55265 (parent)
# chain: MAEIKEKICDYLFNVSDSSALNLAKNIGLTKARDINAVLIDMERQGDVYRQGTTPPIWHLTDK
# B2: COUP transcription factor 1, residues 83 to 159; numbered along this chain, P10589 (parent)
# chain: HIECVVCGDKSSGKHYGQFTCEGCKSFFKRSVRRNLTYTCRANRNCPIDQHHRNQCQYCRLKKCLKVGMRREAVQRG
# Variants of: B1
# Test: abundance fitness (aPCA) (normalised: wild type 0, dead -1); higher = more abundant; growth selection in yeast, the domain comes from the species named
# Conditions: Homo sapiens
row,Variant,abundance fitness
1,E43H,-0.798 ± 0.2
2,E43D,-0.665 ± 0.084
3,E43F,-0.748 ± 0.14
4,E43N,-0.697 ± 0.12
5,E43Q,-0.447 ± 0.093
6,E43Y,-0.725 ± 0.084
7,P55V,-0.298 ± 0.051
8,P55C,-0.344 ± 0.1
9,P55D,0.06 ± 0.07
10,P55K,-0.49 ± 0.096
11,P55E,-0.043 ± 0.058
12,P55A,-0.243 ± 0.059
13,E3Y,-0.298 ± 0.059
14,E3W,-0.147 ± 0.054
15,L29F,-0.107 ± 0.051
16,L29K,-0.54 ± 0.29
17,L29Y,-0.136 ± 0.052
18,L29P,-0.336 ± 0.1
19,L29H,-0.325 ± 0.06
20,L29C,-0.125 ± 0.049
21,A24P,-0.49 ± 0.098
22,A24E,-0.447 ± 0.082
23,A24V,-0.58 ± 0.053
24,A24F,-0.566 ± 0.086
25,A24K,-0.616 ± 0.14

row,Variant,abundance fitness
1,A24M,-0.418 ± 0.088
2,A24N,-0.722 ± 0.13
3,R33G,0.207 ± 0.04
4,R33V,0.327 ± 0.058
5,R33D,0.417 ± 0.074
6,R33I,0.262 ± 0.093
7,R33C,0.157 ± 0.05
8,R33A,0.365 ± 0.052
9,R33H,0.094 ± 0.14
10,R33K,0.056 ± 0.064
11,T54R,-0.18 ± 0.046
12,T54P,-0.722 ± 0.1
13,T54H,0.045 ± 0.045
14,T54V,-0.204 ± 0.053
15,T54E,0.093 ± 0.063
16,K7P,-0.906 ± 0.27
17,K7D,-0.533 ± 0.14
18,K7S,-0.467 ± 0.067
19,K7V,-0.641 ± 0.092
20,K7M,-0.055 ± 0.15
21,Q51H,-0.094 ± 0.077
22,Q51W,-0.407 ± 0.067
23,Q51A,-0.162 ± 0.049
24,Q51P,-0.861 ± 0.1
25,Q51E,0.176 ± 0.084

row,Variant,abundance fitness
1,E6Y,-0.832 ± 0.26
2,E6V,-0.589 ± 0.069
3,E6N,-0.428 ± 0.12
4,E6D,-0.517 ± 0.15
5,E6S,-0.39 ± 0.062
6,E6W,-0.793 ± 0.088
7,E6F,-0.839 ± 0.27
8,E6I,-0.886 ± 0.15
9,E6K,0.056 ± 0.23
10,D34P,-0.541 ± 0.073
11,D34M,-0.333 ± 0.051
12,D34C,-0.978 ± 0.18
13,D34L,-0.444 ± 0.049
14,D34Q,-0.283 ± 0.073
15,D34R,-0.699 ± 0.055
16,D34S,-0.397 ± 0.055
17,D34A,-0.243 ± 0.054
18,L12I,-0.69 ± 0.42
19,L12D,-0.706 ± 0.34
20,L12R,-0.367 ± 0.085
21,L12E,-0.115 ± 0.098
22,L12K,-0.95 ± 0.23
23,L12M,-0.82 ± 0.21
24,L12Y,-0.044 ± 0.29
25,D10R,0.051 ± 0.04

row,Variant,abundance fitness
1,D10H,0.011 ± 0.1
2,D10S,0.05 ± 0.045
3,I8P,-0.455 ± 0.18
4,I8W,-1.3 ± 0.38
5,I8K,-0.568 ± 0.12
6,I8E,-0.374 ± 0.074
7,I8F,-0.506 ± 0.19
8,I8Q,-0.137 ± 0.11
9,K25A,-0.213 ± 0.057
10,K25M,-0.282 ± 0.072
11,K25P,-0.928 ± 0.12
12,G46C,-0.998 ± 0.12
13,G46Y,-1.06 ± 0.24
14,G46K,-0.448 ± 0.082
15,G46I,-1.03 ± 0.21
16,G52Y,-0.765 ± 0.14
17,G52L,-0.764 ± 0.065
18,G52E,-0.12 ± 0.067
19,W58I,-0.366 ± 0.1
20,W58A,-0.426 ± 0.057
21,W58M,-0.362 ± 0.06
22,V48H,-0.574 ± 0.095
23,V48Y,-0.862 ± 0.17
24,Y49I,0.053 ± 0.067
25,Y49H,-0.074 ± 0.076

row,Variant,abundance fitness
1,Y49G,-0.076 ± 0.055
2,Y49M,0.003 ± 0.062
3,Y49P,-0.519 ± 0.071
4,Y49N,-0.34 ± 0.084
5,Y49V,0.177 ± 0.052
6,Y49L,-0.27 ± 0.044
7,A37C,-0.417 ± 0.072
8,A37W,-0.453 ± 0.067
9,A37S,-0.025 ± 0.054
10,A37P,-0.145 ± 0.062
11,M1Q,0.435 ± 0.32
12,M1E,0.235 ± 0.13
13,M1G,-0.263 ± 0.084
14,L60M,-0.295 ± 0.06
15,L60W,-0.793 ± 0.082
16,L60Y,-0.577 ± 0.072
17,L23I,0.372 ± 0.062
18,L23E,-0.329 ± 0.067
19,L23Q,-1.2 ± 0.35
20,L23P,-0.299 ± 0.061
21,L23D,-0.313 ± 0.11
22,L23Y,-0.678 ± 0.12
23,L23W,-0.682 ± 0.094
24,K63F,-0.217 ± 0.46
25,K63E,-0.234 ± 0.11

row,Variant,abundance fitness
1,K63S,-0.367 ± 0.11
2,K63T,-0.297 ± 0.11
3,D62T,-0.15 ± 0.074
4,D62P,-0.333 ± 0.094
5,I35Y,-0.743 ± 0.091
6,I35K,-0.323 ± 0.22
7,I35M,-0.523 ± 0.075
8,I35H,-0.556 ± 0.073
9,I35S,-0.343 ± 0.046
10,I35G,-0.627 ± 0.075
11,T30S,0.107 ± 0.045
12,T30C,-0.002 ± 0.065
13,T30P,-0.199 ± 0.064
14,T30A,0.128 ± 0.038
15,T30Y,0.141 ± 0.078
16,T30F,-0.246 ± 0.1
17,T30H,-0.252 ± 0.095
18,I4S,-0.311 ± 0.04
19,I4P,-0.551 ± 0.061
20,I4L,0.146 ± 0.03
21,I4G,-0.435 ± 0.043
22,I4A,-0.37 ± 0.048
23,I4Y,-0.398 ± 0.063
24,I4C,-0.995 ± 0.092

# Variants of: B2
# Test: as above
# Conditions: Homo sapiens
row,Variant,abundance fitness
1,H1K,0.374 ± 0.25
2,H1N,0.07 ± 0.29
3,H1C,-0.258 ± 0.19
4,H1Y,0.262 ± 0.48
5,H1T,0.074 ± 0.12
6,H1D,0.6 ± 0.17
7,H1G,0.277 ± 0.087
8,H1S,-0.33 ± 0.18
9,H1R,0.013 ± 0.088
10,H1E,-0.007 ± 0.18
11,H1Q,0.121 ± 0.12
12,H1L,0.03 ± 0.14
13,H1V,-0.035 ± 0.15
14,H1A,-0.078 ± 0.21
15,I2C,-0.186 ± 0.47
16,I2D,0.065 ± 0.27
17,I2A,-0.829 ± 0.29
18,I2E,-0.379 ± 0.18
